Earlier results in US20190262496A1, “Compositions and Methods for Collagen-Based Sutures and Antibacterial Coatings” (UNIVERSITY HOSPITALS CLEVELAND MEDICAL CENTER, priority 2016, published 2019).

Conditions: in vivo

In the case of “PDGF-BB: platelet derived growth factor-BB”, the “half-life of the growth factor” value is listed as “a few minutes”.
